# Measured values as given in US7425333B2, “Hypoallergenic allergy vaccines based on the timothy grass pollen allergen Phl p 7” (Biomay Produktions-und Handels-Aktiengesellschaft, priority 2002, dated 2008).
# What was measured:
# [1] = system: timothy grass pollen allergic patients and a non-atopic individual; assay: Skin prick testing (SPT), immediate type skin reactions; assay type: in vivo, human; conditions: for mean wheal diameter: 8 μg/ml, timothy grass pollen allergic patients, 20 minutes; for skin reactions in the non-allergic individual: non-allergic individual (#4)
# Method: The in vivo allergenic activity of the peptides and the mutant was studied by skin prick testing (SPT) in 3 timothy grass pollen allergic patients and a non-atopic individual. SPTs were performed on the individuals' forearms. Twenty microliter aliquots containing 2 concentrations of complete rPhl p 7 or Phl p 7-derived mutant M4 (2 μg/ml, 8 μg/ml) as well as two concentrations of Phl p 7-derived peptides (1 μg/ml m, 4 μg/ml ) were applied. In addition, standardized skin prick solutions (timothy grass pollen extract and histamine) (Allergopharma, Reinbeck, Germany) were tested. Reactions were recorded 20 minutes after SPT by photography and by transferring the ballpoint pen-surrounded wheal area with a scotch tape to paper. The mean wheal diameter (Dm) was calculated by measuring the maximal longitudinal and transversal diameter and dividing their sum by 2.
# [2] = Solubility observation; assay type: physicochemical
# [3] = Secondary structure analysis by far-UV CD; assay type: physicochemical; conditions: for secondary structure (far-UV CD spectra): 20° C., 0.1 cm cell
# Method: CD measurements were carried out on a Jasco J-715 spectropolarimeter using a 0.1 cm pathlength cell equilibrated at 20° C. Spectra were recorded with 0.5 nm resolution at a scan speed of 100 nm/min and resulted from averaging 3 scans. The final spectra were baseline-corrected by subtracting the corresponding MilliQ spectra obtained under identical conditions. Results were fitted with the secondary structure estimation program J-700.
# [4] = system: basophils of a timothy grass pollen allergic individual; assay: Basophil histamine release; assay type: cell-based, human; conditions: granulocytes of one allergic individual; for concentration of maximum histamine release: 10^−6-10 μg/ml tested
# Method: FIG. 3A, B. Induction of histamine release from basophils of a timothy grass pollen allergic patient. Granulocytes of a timothy grass pollen allergic patient were incubated with various concentrations (x-axis) of rPhl p 7 wild type (P7), Phl p 7-derived peptides (P1, P2), Phl p 7-derived mutant (M4) or another antigen (Hom s 4) (FIG. 3A).
# Granulocytes were isolated from heparinized blood samples of a timothy grass pollen allergic individual by dextran sedimentation. Cells were incubated with increasing concentrations (10^−6-10 μg/ml) of each peptide or the mutant, and, for control purposes, with rPhl p 7 wild type. Histamine released in the cell-free culture supernatant was measured by radioimmunoassay (Immunotech, Marseille, France). Total histamine was determined after freezing and thawing of the cells.
# [5] = system: serum IgE of Phl p 7-sensitized grass pollen allergic patients; assay: IgE binding, dot blot with sera from ten timothy grass pollen allergic patients; design: species or system human
# Description: The polypeptides of the invention show reduced binding to IgE antibodies from timothy grass pollen allergic patients compared with wild type Phl p 7 (SEQ ID NO:1). […] Recombinant Phl p 7 consisting substantially of the amino acid sequence as shown in SEQ ID NO:1 can be used to determine the IgE binding activity of wild type Phl p 7. IgE binding of polypeptides may be determined by Western blot analysis or dot blot experiments using serum from a timothy grass pollen allergic patient. Timothy grass pollen allergy is diagnosed according to a case history indicative for timothy grass pollen allergy (i.e., seasonal symptoms of allergy during the flowering period of grasses), positive skin test reaction to timothy grass pollen allergens and/or the detection of specific IgE antibodies to timothy grass pollen allergens in serum. Dot blots can be quantified by measuring the amount of ^125I-labeled anti-human IgE antibodies by gamma counting as described (Niederberger et al. J. Allergy Clin. Immunol. 1998, 102, 579-591).
# (§1) Nitrocellulose blotted rPhl p 7 (lane Phl p 7) and rPhl p 7-derived mutants (lanes M1.6, M2A, M4) were probed with serum from a Phl p 7-sensitized grass pollen allergic patient. Bound IgE antibodies were detected with ^125I-labeled anti human IgE antibodies (FIG. 2A). Nitrocellulose dotted Phl p 7 and Phl p 7-derived mutants (M1.6, M2A, M4) as well the Phl p 7-derived peptides were probed with sera from ten Phl p 7-sensitized grass pollen allergic patients. Bound IgE antibodies were detected with ^125I-labeled anti human IgE antibodies (FIG. 2B).
# (§2) The IgE binding capacity of purified Phl p 7-derived mutants (M1.6, M2A, M4) was compared with that of Phl p 7 wild type by western blot analysis using serum from a timothy grass pollen allergic patient (FIG. 2A) as well as by dot blot experiments using sera from ten timothy grass pollen allergic patients (FIG. 2B).
# The IgE binding capacity of Phl p 7-derived peptides was compared with that of Phl p 7 wild type by dot blot experiments using sera from ten timothy grass pollen allergic patients (FIG. 2B). For both peptides the IgE binding capacity was completely abolished, when tested with serum from ten timothy grass pollen allergic patients.
# [6] = system: recombinant Aln g 4; assay: Rabbit immunization, antiserum reactivity with Aln g 4 by dot blot; assay type: in vivo; conditions: rabbit antiserum diluted 1:1000
# recombinant Aln g 4, sequence (O81701 whole entry): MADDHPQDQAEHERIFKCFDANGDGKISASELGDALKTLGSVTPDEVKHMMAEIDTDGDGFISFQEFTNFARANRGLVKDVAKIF
# [7] = system: serum IgE of a Phl p 7-sensitized grass pollen allergic patient; assay: IgE binding, western blot with serum of a timothy grass pollen allergic patient; design: species or system human; conditions: serum from one timothy grass pollen allergic patient
# Description: as §1, §2
# [8] = system: rPhl p 7 wild type; assay: Rabbit immunization, IgG reactivity with Phl p 7 by dot blot; assay type: in vivo; conditions: rabbits, 200 μg/injection, Freund's adjuvant; antiserum 1:500-1:2000
molecule,measurement,setting,value
"NCCc1c[nH]cn1 [histamine, reference compound]",skin reaction to positive control,"[1]; all individuals (3 allergic, 1 non-allergic)",All individuals reacted
"C-terminal peptide: synthetic peptide comprising the complete C-terminal calcium-binding domain of Phl p 7 (SEQ ID NO:3), one cysteine added",solubility,[2],significant decreased solubility and precipitation
same,secondary structure (far-UV CD spectra),[3],unfolded
"N-terminal peptide: synthetic peptide comprising the complete N-terminal calcium-binding domain of Phl p 7 (SEQ ID NO:2), one cysteine added",secondary structure (far-UV CD spectra),[3],random coil secondary structure
"Phl p 7 wild type: recombinantly produced wild type timothy grass pollen allergen Phl p 7, amino acid sequence SEQ ID NO:1 (protein, Phleum pratense) MADDMERIFKRFDTNGDGKISLSELTDALRTLGSTSADEVQRMMAEIDTDGDGFIDFNEFISFCNANPGLMKDVAKVF",immediate type skin reactions,"[1]; skin prick test, 2 μg/ml",induced immediate type skin reactions
same,mean wheal diameter,[1]; skin prick test,9.3 mm
same,skin reactions in the non-allergic individual,[1]; skin prick test,no reactions
same,concentration of maximum histamine release,[4],10^−4 μg/ml
same,secondary structure (far-UV CD spectra),[3],significant larger α-helical signal
"M1.6: Phl p 7-derived mutant, SEQ ID NO:4: 24E→24A (first EF-hand); 59E→59A (second EF-hand) (protein) MADDMERIFKRFDTNGDGKISLSALTDALRTLGSTSADEVQRMMAEIDTDGDGFIDFNAFISFCNANPGLMKDVAKVF",patients whose serum IgE bound (dot blot),[5],six out of ten
"M2A: Phl p 7-derived mutant, SEQ ID NO:5: 17D→A, 24E→24A; 59E→59A (protein) MADDMERIFKRFDTNGAGKISLSALTDALRTLGSTSADEVQRMMAEIDTDGDGFIDFNAFISFCNANPGLMKDVAKVF",patients whose serum IgE bound (dot blot),[5],five out of ten
"M4: Phl p 7-derived mutant, SEQ ID NO:6: 17D→A, 24E→24A; 52D→52A, 59E→59A (protein) MADDMERIFKRFDTNGAGKISLSALTDALRTLGSTSADEVQRMMAEIDTDGAGFIDFNAFISFCNANPGLMKDVAKVF",recognition of cross-reactive allergen Aln g 4 by rabbit antiserum raised against the immunogen,[6],"recognized the Phl p 7-cross-reactive allergen, Aln g 4"
same,mean wheal diameter,[1]; skin prick test,7 mm
same,immediate skin reactions compared with Phl p 7 wild type,"[1]; skin prick test, allergic patients",moderately weaker
same,skin reactions in the non-allergic individual,[1]; skin prick test,no reactions
same,concentration of maximum histamine release,[4],10^−3 μg/ml
same,induction of histamine release,[4]; increasing concentrations,dose-dependent release of histamine
same,secondary structure (far-UV CD spectra),[3],increasing portion of random-coil secondary structure
same,decrease of CD signal in contrast to normalized spectrum of rPhl p 7,[3]; second analysis comparing Phl p 7 and point mutant-4,approximately 20%
same,IgE binding capacity compared to Phl p 7 (western blot),[7],strongest reduction
same,patients whose serum IgE bound (dot blot),[5],four out of ten
same,IgE binding capacity (dot blot),[5]; compared with Phl p 7 wild type,strongest reduction of IgE binding capacity
same,induction of IgG anti-Phl p 7 antibody response,[8],induced IgG anti-Phl p 7 antibody responses
